Measurements taken from patent US20090175866A1, “TREATMENT OF B-CELL MALIGNANCIES” (priority 2004, published 2009).

Tests used:
[1] = molecular target: FGFR1 (Homo sapiens, UniProt P11362); assay: FGF-stimulated proliferation of FDCP-FGFR1 cells (XTT); format: cell-based; conditions: up to 10 fold higher concentrations than the FDCP-FGFR3 IC50
From the text: FIG. 1D is a graph showing proliferation of FGFR expressing FDCP cells in the presence of increasing concentrations of PRO-001 as determined by XTT analysis. Data are the average of duplicate cultures. The X axis represents concentration of PRO-001 Fab. The Y axis represents % inhibition.
Non-transformed rat chondrocyte cell line expressing PGFR3 in an inducible manner (RCJ-FGFR3) has been described previously (Rauchenberger R. et al. J. Biol. Chem. 2003; 278:38194-205). […]
(§1) Cell viability was assessed by 3-(4,5-dimethylthiazol)-2,5-diphenyl tetrazolium (MTT) or (2,3-bis(2-methoxy-4-nitro-5-sulphophenyl)-5-[(phenylamino) carbonyl]-2H-tetrazolium hydroxide (XTT) dye absorbance where indicated. Cells were seeded in 96-well plates at a density of 20,000 (FDCP-1 cells), 5,000 (B9 cells) or 25,000 cells (MM cell lines) per well in culture medium. Cells were incubated in the absence or presence of one of the following cytokines: 10 ng/ml FGF9 and 5 μg/ml heparin, 1% murine IL-6, 50 ng/ml IGF-1 or 50 ng/ml human IL-6 where indicated and increasing concentrations of PRO-001, control antibody (purified human Fab) or 100 nM PD173074. […]

[2] = tested on: BMSC; assay: Direct toxicity on bone marrow stroma cells (annexin V); format: cell-based, human; conditions: 5 μg/ml, 72 hours (FIG. 5 legend)
Description: FIG. 5 is a graph showing apoptosis of UTMC2 cells in response to treatment with PRO-001 in the presence of BMSCs (stroma). BMSCs alone (stroma) or BMSCs together with UTMC2 cells (stroma/UTMC2) were cultured with control antibody or 5 μg/ml PRO-001 for 72 hours and apoptosis was assessed by means of a flow cytometry assay of annexin V binding and propidium iodide exclusion. Values represent means of quadruplicate cultures ±SD.
(§2) Non-transformed rat chondrocyte cell line expressing PGFR3 in an inducible manner (RCJ-FGFR3) has been described previously (Rauchenberger R. et al. J. Biol. Chem. 2003; 278:38194-205). Cells were maintained in α-Minimum Essential Media supplemented with 15% fetal calf serum (FCS), 2 mM L-Glutamine, 100 U/ml penicillin, 100 μg/ml streptomycin, 600 μg/ml G418 (Gibco BRL, Ontario, Canada), 2 μg/ml Tetracyclin (Sigma, Ontario, Canada), and 50 μg/ml HygromycinB (Gibco BRL). FGFR3 expression was induced by removal of tetracyclin and serum starvation. […]
For studies of apoptosis, cells were seeded at an initial density of 2.5×10^5/ml in 6 well plates coated with BMSCs and supplemented with control (vehicle or antibody) or 5 μg/ml PRO-001 and cultured for 48 h. Apoptosis was determined by Annexin V staining (Boehringer Mannheim, Indianapolis, Ind.) and analyzed by flow cytometry. […]

[3] = tested on: UTMC2 cells; assay: Viability of stimulated UTMC2 myeloma cells (MTT); format: cell-based, human
Description: FIG. 2 is a graph showing the viability of human myeloma cell lines in the presence of PRO-001. Viability is reported as the ratio between the optical density (OD) in the presence of FGF±inhibitor and the OD in the absence of FGF.
FIG. 4 is a graph showing viability of UTMC2 cells treated with FGF, IL6 or IGF-1. The dark bars represent stimulated cells treated with a control antibody; the dotted bar represents stimulated cells treated with 5 μg/ml PRO-001; the square-filled bar represents stimulated cells treated with 100 nM PD173074.
as §2, §1
PRO-001 was tested against t (4; 14) myeloma cell lines expressing FGFR3: UTMC2 cells—expressing WT FGFR3, and H929 cells—expressing WT FGFR3 but harboring a downstream activating mutation of N-Ras. Cell growth in the presence of FGF and PRO-001 (5 μg/ml), control antibody (isotype) or 100 nM PD173074 was determined by MTT assay. […]

[4] = molecular target: FGFR3 (Homo sapiens, UniProt P22607); assay: FGFR3 domain specificity of binding
FGFR3, sequence (P22607 23-806): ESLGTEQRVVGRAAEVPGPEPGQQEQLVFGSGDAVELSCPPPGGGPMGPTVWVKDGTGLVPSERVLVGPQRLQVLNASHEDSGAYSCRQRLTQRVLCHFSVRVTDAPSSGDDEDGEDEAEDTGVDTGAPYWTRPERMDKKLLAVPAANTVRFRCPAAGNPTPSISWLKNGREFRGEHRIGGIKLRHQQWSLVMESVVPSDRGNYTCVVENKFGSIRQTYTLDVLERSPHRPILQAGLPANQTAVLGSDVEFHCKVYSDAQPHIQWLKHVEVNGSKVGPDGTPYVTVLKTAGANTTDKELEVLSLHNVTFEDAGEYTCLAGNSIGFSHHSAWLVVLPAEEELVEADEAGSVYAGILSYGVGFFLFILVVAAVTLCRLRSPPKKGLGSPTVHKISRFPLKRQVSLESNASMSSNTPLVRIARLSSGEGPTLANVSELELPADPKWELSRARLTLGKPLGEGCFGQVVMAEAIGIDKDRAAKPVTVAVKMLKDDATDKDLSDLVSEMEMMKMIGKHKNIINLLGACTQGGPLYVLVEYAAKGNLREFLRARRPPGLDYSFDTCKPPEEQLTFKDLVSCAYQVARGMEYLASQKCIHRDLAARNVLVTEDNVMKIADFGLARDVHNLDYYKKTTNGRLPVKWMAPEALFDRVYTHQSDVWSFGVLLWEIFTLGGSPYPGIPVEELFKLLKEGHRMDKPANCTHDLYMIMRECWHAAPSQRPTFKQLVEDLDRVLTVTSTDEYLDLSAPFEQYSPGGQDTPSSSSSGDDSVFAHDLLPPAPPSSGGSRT

FGFR1, sequence (P11362 22-822, species assumed): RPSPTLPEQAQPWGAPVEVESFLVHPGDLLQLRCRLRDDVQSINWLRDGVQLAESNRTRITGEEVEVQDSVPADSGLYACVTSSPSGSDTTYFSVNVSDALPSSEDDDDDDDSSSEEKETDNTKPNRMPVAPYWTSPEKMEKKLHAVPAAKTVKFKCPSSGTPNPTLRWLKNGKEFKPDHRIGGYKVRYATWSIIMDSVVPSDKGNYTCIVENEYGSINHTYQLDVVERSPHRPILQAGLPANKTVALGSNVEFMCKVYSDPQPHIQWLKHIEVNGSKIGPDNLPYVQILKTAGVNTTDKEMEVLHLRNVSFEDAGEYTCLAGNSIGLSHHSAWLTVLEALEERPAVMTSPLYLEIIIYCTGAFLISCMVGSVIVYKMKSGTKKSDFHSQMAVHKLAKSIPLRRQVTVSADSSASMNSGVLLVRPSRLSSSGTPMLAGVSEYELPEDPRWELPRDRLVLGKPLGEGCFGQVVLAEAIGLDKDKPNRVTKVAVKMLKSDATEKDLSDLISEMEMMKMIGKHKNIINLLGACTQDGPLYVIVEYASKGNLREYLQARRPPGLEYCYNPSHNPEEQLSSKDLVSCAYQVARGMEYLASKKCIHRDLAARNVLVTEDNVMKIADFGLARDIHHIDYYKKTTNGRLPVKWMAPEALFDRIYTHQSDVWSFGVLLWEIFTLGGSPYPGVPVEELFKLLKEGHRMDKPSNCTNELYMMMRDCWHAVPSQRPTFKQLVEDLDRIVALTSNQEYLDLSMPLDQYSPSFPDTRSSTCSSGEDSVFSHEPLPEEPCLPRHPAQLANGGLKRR

B1: PRO-001: human anti-FGFR3 Fab from HuCAL library; VH-CDR3 SEQ ID NO:1, VL-CDR3 SEQ ID NO:10; VH SEQ ID NO:19, VL SEQ ID NO:28 (antibody, V domains shown)
VH: QVQLQQSGPGLVKPSQTLSLTCAISGDSVSSNSAAWNWIRQSPGRGLEWLGRTYYRSKWYNDYAVSVKSRITINPDTSKNQFSLQLNSVTPEDTAVYYCARSYYPDFDYWGQGTLVTVSS
VL: DIELTQPPSVSVAPGQTARISCSGDALGDKYASWYQQKPGQAPVLVIYDDSDRPSGIPERFSGSNSGNTATLTISGTQAEDEADYYCQSYDGPDLWVFGGGTKLTVLGQ
Proliferation of FDCP-1 cells expressing FGFR1 [1]: unaffected
Direct toxicity on the BMSC [2]: no direct toxicity
Viability of UTMC2 cells stimulated with IGF-1 ([3]; 5 μg/ml PRO-001): remain sensitive
Viability of UTMC2 cells stimulated with IL6 ([3]; 5 μg/ml PRO-001): remain sensitive
Proliferation of FGF-stimulated UTMC2 cells ([3]; 5 μg/ml, MTT): significantly inhibited
FGFR3 Domain Specificity [4]: 2
